Measured values reported in US20260042850A1.

Key:
[1] = target: cynomolgus monkey C-MET on stably transfected CHO-K1 cells (cynomolgus monkey); assay: flow cytometry, C-MET CHO-K1 cells
[2] = target: human C-MET on stably transfected CHO-K1 cells (human) (UniProt P08581); assay: flow cytometry, C-MET CHO-K1 cells
[3] = target: human C-MET His tagged, monomeric (human) (UniProt P08581); assay: SPR Biacore, IgG captured, monomeric C-MET-His analyte
[4] = target: cynomolgus monkey C-MET His tag, monomeric (cynomolgus monkey); assay: as above
[5] = target: cynomolgus monkey C-MET His tag, monomeric (cynomolgus monkey); assay: SPR Biacore, monomeric cyno against monomeric human C-MET

Sequence of human C-MET His tagged, monomeric (human) (P08581 25-932): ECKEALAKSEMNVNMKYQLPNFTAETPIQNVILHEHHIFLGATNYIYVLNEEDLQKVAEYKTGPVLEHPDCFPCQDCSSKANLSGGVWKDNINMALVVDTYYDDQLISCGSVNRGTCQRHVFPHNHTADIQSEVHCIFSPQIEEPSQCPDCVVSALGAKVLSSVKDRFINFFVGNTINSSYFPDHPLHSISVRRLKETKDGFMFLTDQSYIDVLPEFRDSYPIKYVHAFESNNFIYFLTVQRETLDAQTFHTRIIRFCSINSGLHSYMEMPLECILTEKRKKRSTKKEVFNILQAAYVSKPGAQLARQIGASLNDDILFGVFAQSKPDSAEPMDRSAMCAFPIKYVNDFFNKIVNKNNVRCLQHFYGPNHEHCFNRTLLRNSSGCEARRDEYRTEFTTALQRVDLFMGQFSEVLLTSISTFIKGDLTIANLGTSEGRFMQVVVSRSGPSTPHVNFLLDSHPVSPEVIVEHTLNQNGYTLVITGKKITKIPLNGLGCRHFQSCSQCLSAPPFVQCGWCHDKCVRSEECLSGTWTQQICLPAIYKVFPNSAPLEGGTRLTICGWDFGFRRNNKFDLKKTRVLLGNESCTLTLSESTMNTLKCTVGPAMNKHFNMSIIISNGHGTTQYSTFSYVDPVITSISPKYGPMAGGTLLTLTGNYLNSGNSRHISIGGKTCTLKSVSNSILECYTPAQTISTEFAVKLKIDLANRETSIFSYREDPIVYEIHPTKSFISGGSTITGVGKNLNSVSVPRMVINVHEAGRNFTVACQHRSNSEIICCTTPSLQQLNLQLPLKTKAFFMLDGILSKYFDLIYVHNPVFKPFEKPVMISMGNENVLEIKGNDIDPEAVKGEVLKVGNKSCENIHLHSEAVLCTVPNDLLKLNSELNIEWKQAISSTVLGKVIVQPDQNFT
Sequence of cynomolgus monkey C-MET His tag, monomeric (cynomolgus monkey) (A0M8R7 25-932 S170N/I621T): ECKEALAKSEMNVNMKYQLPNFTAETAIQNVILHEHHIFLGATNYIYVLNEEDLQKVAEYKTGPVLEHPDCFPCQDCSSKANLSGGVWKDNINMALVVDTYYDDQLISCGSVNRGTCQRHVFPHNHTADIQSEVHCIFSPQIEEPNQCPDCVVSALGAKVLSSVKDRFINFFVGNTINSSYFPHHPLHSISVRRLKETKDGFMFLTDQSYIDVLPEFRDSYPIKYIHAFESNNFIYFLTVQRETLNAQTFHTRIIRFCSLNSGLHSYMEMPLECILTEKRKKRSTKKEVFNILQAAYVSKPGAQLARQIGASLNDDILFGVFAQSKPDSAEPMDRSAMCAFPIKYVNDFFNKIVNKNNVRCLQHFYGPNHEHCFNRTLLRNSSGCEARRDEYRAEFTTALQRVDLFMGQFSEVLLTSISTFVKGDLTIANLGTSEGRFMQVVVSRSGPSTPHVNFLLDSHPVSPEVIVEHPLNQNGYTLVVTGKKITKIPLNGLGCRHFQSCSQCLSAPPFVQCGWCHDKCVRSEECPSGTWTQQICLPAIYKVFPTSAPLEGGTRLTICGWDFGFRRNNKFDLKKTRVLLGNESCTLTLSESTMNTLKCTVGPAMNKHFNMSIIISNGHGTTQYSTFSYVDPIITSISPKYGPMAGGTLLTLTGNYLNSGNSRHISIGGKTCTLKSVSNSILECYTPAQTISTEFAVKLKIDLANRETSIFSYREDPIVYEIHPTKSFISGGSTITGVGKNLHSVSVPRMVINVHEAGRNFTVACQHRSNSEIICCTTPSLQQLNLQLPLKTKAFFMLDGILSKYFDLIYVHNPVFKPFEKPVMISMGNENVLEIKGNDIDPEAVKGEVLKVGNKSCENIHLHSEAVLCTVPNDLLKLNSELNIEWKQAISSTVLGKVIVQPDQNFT
Sequence of cynomolgus monkey C-MET on stably transfected CHO-K1 cells (cynomolgus monkey) (A0M8R7 25-1381 S170N/I621T limits assumed): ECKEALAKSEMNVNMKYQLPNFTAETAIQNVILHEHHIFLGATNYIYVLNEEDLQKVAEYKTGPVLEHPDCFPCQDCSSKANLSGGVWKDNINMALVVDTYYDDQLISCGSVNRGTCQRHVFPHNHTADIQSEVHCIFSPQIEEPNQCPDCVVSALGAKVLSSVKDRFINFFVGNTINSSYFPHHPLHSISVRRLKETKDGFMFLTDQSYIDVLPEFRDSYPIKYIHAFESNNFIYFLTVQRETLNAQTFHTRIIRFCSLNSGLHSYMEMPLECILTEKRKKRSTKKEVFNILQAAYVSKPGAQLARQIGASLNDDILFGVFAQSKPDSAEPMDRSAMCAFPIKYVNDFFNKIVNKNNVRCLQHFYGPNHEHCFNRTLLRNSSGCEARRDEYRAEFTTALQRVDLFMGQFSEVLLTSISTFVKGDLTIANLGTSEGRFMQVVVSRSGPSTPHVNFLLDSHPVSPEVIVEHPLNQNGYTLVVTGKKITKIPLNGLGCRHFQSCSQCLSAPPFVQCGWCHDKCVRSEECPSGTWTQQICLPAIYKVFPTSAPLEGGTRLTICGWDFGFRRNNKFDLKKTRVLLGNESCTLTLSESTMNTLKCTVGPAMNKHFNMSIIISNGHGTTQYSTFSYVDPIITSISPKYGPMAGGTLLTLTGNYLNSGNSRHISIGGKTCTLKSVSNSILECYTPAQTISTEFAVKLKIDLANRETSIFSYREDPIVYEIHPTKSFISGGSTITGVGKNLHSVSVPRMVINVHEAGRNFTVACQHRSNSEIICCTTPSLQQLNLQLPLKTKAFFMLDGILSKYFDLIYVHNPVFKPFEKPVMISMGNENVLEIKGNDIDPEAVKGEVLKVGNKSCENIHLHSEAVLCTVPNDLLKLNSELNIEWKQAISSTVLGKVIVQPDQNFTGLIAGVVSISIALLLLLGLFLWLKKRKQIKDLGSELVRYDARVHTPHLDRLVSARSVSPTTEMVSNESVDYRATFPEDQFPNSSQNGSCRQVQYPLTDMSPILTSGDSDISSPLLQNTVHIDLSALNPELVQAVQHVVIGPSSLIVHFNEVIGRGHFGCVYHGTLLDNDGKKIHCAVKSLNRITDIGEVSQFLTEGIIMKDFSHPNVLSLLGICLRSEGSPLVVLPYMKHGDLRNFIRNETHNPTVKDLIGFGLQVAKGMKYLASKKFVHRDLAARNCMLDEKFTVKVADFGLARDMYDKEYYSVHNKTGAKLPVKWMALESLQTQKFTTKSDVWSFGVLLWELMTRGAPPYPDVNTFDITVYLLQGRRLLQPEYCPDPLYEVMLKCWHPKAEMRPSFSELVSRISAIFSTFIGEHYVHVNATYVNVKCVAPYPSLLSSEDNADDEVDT
Sequence of human C-MET on stably transfected CHO-K1 cells (human) (P08581 25-1390 limits assumed): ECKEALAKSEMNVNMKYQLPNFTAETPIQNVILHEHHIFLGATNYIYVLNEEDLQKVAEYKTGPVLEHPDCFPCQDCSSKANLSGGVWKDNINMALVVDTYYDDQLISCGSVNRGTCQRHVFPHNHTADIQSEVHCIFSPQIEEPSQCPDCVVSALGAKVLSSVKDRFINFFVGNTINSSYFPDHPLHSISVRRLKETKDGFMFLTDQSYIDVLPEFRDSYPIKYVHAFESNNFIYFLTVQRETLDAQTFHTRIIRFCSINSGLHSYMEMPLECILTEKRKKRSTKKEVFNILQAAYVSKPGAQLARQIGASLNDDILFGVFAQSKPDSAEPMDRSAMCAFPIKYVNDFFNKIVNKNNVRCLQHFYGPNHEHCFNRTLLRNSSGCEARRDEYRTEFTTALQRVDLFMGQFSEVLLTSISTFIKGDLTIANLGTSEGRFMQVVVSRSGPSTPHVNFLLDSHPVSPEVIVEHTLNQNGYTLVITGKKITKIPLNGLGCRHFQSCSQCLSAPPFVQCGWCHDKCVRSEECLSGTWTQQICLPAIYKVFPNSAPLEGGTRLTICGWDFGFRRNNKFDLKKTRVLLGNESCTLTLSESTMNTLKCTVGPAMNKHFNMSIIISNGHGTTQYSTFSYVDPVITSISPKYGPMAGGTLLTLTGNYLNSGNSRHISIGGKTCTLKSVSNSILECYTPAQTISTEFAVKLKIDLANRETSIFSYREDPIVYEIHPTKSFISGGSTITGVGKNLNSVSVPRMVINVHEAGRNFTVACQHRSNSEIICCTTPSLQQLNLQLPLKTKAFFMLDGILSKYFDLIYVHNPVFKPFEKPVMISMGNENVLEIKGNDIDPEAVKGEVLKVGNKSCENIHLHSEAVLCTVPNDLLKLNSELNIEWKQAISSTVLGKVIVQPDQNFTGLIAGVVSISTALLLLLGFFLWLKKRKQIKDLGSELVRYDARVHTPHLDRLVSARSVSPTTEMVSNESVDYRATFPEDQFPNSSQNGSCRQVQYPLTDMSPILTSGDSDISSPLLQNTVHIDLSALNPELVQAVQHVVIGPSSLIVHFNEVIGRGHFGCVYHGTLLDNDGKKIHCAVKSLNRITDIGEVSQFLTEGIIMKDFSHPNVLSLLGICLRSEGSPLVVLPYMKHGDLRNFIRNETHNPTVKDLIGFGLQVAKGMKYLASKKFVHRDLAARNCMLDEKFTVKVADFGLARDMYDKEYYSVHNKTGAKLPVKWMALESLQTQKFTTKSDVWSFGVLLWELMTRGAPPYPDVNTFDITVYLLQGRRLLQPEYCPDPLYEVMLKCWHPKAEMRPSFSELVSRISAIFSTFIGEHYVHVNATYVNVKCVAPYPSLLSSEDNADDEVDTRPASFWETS

| EC50 [1] [nM] | maximum MFI, fold over Isotype IgG4 background [1] [fold] | EC50 [2] [nM] | maximum MFI, fold over Isotype IgG4 background [2] [fold] | Kd [3] [nM] | koff [3] [s⁻¹] | kon [3] [M⁻¹ s⁻¹] | Kd [4] [nM] | koff [4] [s⁻¹] | kon [4] [M⁻¹ s⁻¹] | cyno C-MET affinity, fold of the human C-MET affinity [5] [fold] | Binder |
| --- | --- | --- | --- | --- | --- | --- | --- | --- | --- | --- | --- |
| 0.28 | > 10 | 2.33 | > 10 | 2 | 0.00015 | 74000 | 1.5 | 0.00023 | 160000 |  | 09A12 (antibody, IgG4, V domains shown) VH: QVQLVQSGAEVKKPGASVKVSCKASGYTFTSYSMHWVRQAPGQGLEWMGWINPNGGLTNYAQKFRGRVTMTRDTSTSTVYMELSSLRSEDTAVYYCAREEITTEFDYWGQGTLVTVSS VL: EIVLTQSPGTLSLSPGERATLSCRASQSVSSYAQSYLHWYQQKPGQAPRLLIYRASTRETGIPDRFSGSGSGTDFTLTISRLEPEDFAVYYCQQSKESPLTFGGGTKVEIK |
| 1.74 | > 10 | 7.44 | > 10 | 0.24 | 1.3e-05 | 56000 | 0.17 | 1.6e-05 | 94000 | < 2 | 07A01 (antibody, IgG4, V domains shown) VH: QVQLVQSGAEVKKPGASVKVSCKASGYIFTSYTMHWVRQAPGQGLEWMGWINPNGGLASYAQKFQGRVTMTRDTSTSTVYMELSSLRSEDTAVYYCARSEITTEQDYWGQGTLVTVSS VL: EIVLTQSPGTLSLSPGERATLSCRASQSVDSYANSYLHWYQQKPGQAPRLLIYRGSTRESGIPDRFSGSGSGTDFTLTISRLEPEDFAVYYCQQSKESPLTFGGGTKVEIK |
